Experimental findings from patent US20210364527A1 are described below.

This assay concerns the target polypeptide with a terminal leucine residue (rest of sequence not given). Put plainly: single-molecule dwell time analysis; panel Leu; filtered 0.00s<=dur<=20.00s and magnitude above baseline > 15.0.

Synechococcus elongatus ClpS2 returned a mean pulse duration (dashed line of the distribution) of 0.35 s.
